{
  "source": "paper PMC4432371",
  "about": "“Functional Characterization of Novel Sesquiterpene Synthases from Indian Sandalwood, Santalum album” (Scientific Reports, 2015)",
  "molecules": {"B1": {"name": "SaSS (Santalum album) (protein)", "chain": "MDSSTATAMTAPFIDPTDHVNLKTDTDASENRRMGNYKPSIWNYDFLQSLATHHNIVEERHLKLAEKLKGQVKFMFGAPMEPLAKLELVDVVQRLGLNHLFETEIKEALFSIYKDGSNGWWFGHLHATSLRFRLLRQCGLFIPQDVFKTFQNKTGEFDMKLCDNVKGLLSLYEASYLGWKGENILDEAKAFTTKCLKSAWENISEKWLAKRVKHALALPLHWRVPRIEARWFIEAYEQEANMNPTLLKLAKLDFNMVQSIHQKEIGELARWWVTTGLDKLAFARNNLLQSYMWSCAIASDPKFKLARETIVEIGSVLTVVDDGYDVYGSIDELDLYTSSVERWSCVEIDKLPNTLKLIFMSMFNKTNEVGLRVQHERGYNSIPTFIKAWVEQCKSYQKEARWFHGGHTPPLEEYSLNGLVSIGFPLLLITGYVAIAENEAALDKVHPLPDLLHYSSLLSRLINDIGTSPDEMARGDNLKSIHCYMNETGASEEVAREHIKGVIEENWKILNQCCFDQSQFQEPFITFNLNSVRGSHFFYEFGDGFGVTDSWTKVDMKSVLIDPIPLGEE"}, "B2": {"name": "SaSQS1 (Santalum album) (protein)", "chain": "MDLCQIPPTSPISPSVPFNGDDSSVVRRSANYPANLWDYDFLQSLGRHSSVTEEHVGLAEKLKGEVKSLITGPMEPLAKLEFIDSVRRLGLKYQFETEMKEALANISKDGYDSWWVDNLRATALRFRLLRENGIFVPQDVFERFQNKETGKFKNELCEDVKGLLNLYEASFLGWEGEDILDEARTFSTAQLKNVEGKISSPNLAKIVHHALDLPLHWRAIRYEARWFIDIYEDEEDMNPTLLKYAKLDFNIVQSFHQAEIGRLARWWVGTGLDKLPFARNGLIQSYMYAIGMLFEPHLGEVREMEAKVGALITTIDDVYDVYGTMEELELFTDITERWDINRVDQLPRNIRMPLLTMFNTSNDIGYWALKERGFNGIPYTAKVWADQLKSYTKEAKWFHEGHKPTLEEYLENALVSIGFPNLLVTSYLLTVDNPTKEKLDYVDSLPLFVRASCILCRIINDLGTSPDEMERGDNLKSIQCYMNETGASQEVAREHIEGLVRMWWKRLNKCLFEPSPFTEPFLSFTINVVRGSHFFYQYGDGYGNAESWTKNQGMSVLIHPITLDEE"}, "B3": {"name": "SaSQS2 (Santalum album) (protein)", "chain": "MASVIVEPIRCNNDNDVISTVVDDSSVVRRAANYPPNLWDYEFLQSLGDQCTVEEKHLKLADKLKEEVKSLIKQTMEPLTKLEFIDTVRRLGLKYQFETEVKEAVVMVSKYENDAWWIDNLHATSLRFRIMRENGIFVPQDVFERFKDTDGFKNQLCEDVKGLLSLYEASFLGWEGEDILDEARTFATSKLKSIEGKIPSPSLAKKVSHALDLPLHWRTIRYEARWFIDTYEEEEDVNLTLLRYAKLDFNIVQSFHQKEIGRLSRWWVGTGLDKMPFARNGLIQSYMYAIGMLFEPNLGEVREMEAKVGALITTIDDVYDVYGTMEELELFTDITNRWDISKADQLPRNIRMPLLTMFNTSNDIGYWALKERGFNGIPCTAKVWSDQLKSYTKEAKWFHEGHKPTLEEYLDNALVSIGFPNLLVTSYLLTVENPTKEKLDYVNSLPLFVRASCILCRIINDLGTSPDEMERGDNLKSIQCYMNEAGASQEVAREHIEGLVRMWWKRLNKCLFEPSPFAEPFLSFTVNVVRGSHFFYQYGDGYGNAESWTKKQGMSVLIHPIPLNEE"}, "B4": {"name": "SaBS (Santalum album) (protein)", "chain": "MDAFATSPTSALIKAVNCIAHVTPMAGEDSSENRRASNYKPSSWDYEFLQSLATSHNTVQEKHMKMAEKLKEEVKSMIKGQMEPVAKLELINILQRLGLKYRFESEIKEELFSLYKDGTDAWWVDNLHATALRFRLLRENGIFVPQDVFETLKDKSGKFKSQLCKDVRGLLSLYEASYLGWEGEDLLDEAKKFSTTNLNNVKESISSNTLGRLVKHALNLPLHWSAARYEARWFIDEYEKEENVNPNLLKYAKFDFNIVQSIHQRELGNLARWWVETGLDKLSFVRNTLMQNFMWGCAMVFEPQYGKVRDAAVKQASLIAMVDDVYDVYGSLEELEIFTDIVDRWDITGIDKLPRNISMILLTMFNTANQIGYDLLRDRGFNGIPHIAQAWATLCKKYLKEAKWYHSGYKPTLEEYLENGLVSISFVLSLVTAYLQTETLENLTYESAAYVNSVPPLVRYSGLLNRLYNDLGTSSAEIARGDTLKSIQCYMTQTGATEEAAREHIKGLVHEAWKGMNKCLFEQTPFAEPFVGFNVNTVRGSQFFYQHGDGYAVTESWTKDLSLSVLIHPIPLNEED"}},
  "key": {"[1]": {"target": "SaFDS (Santalum album, UniProt E3W209)", "sequence (E3W209 entry or part of it)": "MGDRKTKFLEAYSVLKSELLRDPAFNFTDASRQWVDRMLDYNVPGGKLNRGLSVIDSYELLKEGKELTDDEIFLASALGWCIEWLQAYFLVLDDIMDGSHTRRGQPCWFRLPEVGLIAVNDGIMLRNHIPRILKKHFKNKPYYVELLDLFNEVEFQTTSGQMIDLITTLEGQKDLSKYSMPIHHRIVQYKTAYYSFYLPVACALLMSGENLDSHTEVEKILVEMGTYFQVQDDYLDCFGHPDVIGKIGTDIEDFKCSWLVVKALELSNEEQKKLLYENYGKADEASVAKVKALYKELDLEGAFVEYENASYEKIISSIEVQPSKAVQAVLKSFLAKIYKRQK", "assay": "GC / GC-MS of (E,E)-farnesol after alkaline phosphatase", "format": "biochemical", "conditions": "25 mM HEPES, 10% glycerol, 5 mM DTT, 10 mM MgCl2, pH 7.4, 30 °C"}, "[2]": {"target": "SaSS (Santalum album, UniProt E3W202, Y539W)", "sequence (E3W202 whole entry Y539W)": "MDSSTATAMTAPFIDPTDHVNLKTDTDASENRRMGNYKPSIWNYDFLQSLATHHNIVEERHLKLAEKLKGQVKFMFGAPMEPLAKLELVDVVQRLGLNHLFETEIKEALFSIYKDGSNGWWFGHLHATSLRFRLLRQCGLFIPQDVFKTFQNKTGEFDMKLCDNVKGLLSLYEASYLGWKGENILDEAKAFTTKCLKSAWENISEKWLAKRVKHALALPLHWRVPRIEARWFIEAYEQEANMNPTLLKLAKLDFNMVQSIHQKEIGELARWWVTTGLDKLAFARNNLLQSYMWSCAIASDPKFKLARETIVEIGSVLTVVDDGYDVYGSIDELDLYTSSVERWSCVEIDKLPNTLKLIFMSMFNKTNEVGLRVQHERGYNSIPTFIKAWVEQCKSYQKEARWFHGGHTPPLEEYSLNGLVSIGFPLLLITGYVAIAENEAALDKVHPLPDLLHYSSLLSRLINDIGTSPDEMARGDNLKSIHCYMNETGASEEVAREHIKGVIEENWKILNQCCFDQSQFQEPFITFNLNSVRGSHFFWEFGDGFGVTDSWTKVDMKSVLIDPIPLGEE", "assay": "GC / GC-MS product analysis", "format": "biochemical", "conditions": "data not shown; mutant sequence NCBI JQ690659; assay form of the mutant not described"}, "[3]": {"substrate": "CC(C)=CCC/C(C)=C/CC/C(C)=C/CO[P@@](=O)(O)OP(=O)(O)O", "assay": "GC quantification of product, steady-state kinetics", "format": "biochemical, Santalum album", "conditions": "apparent Km, HEPES buffer, 30 °C, 5 min, 5 μM enzyme", "description": "GC quantification of product, steady-state kinetics on SaSS"}, "[4]": {"substrate": "CC(C)=CCC/C(C)=C/CC/C(C)=C/CO[P@@](=O)(O)OP(=O)(O)O", "assay": "GC quantification of product, steady-state kinetics", "format": "biochemical, Santalum album", "conditions": "apparent Km, HEPES buffer, 30 °C, 5 min, 5 μM enzyme", "description": "GC quantification of product, steady-state kinetics on SaSQS1", "remark": "listed apart in the source"}, "[5]": {"substrate": "CC(C)=CCC/C(C)=C/CC/C(C)=C/CO[P@@](=O)(O)OP(=O)(O)O", "assay": "GC quantification of product, steady-state kinetics", "format": "biochemical, Santalum album", "conditions": "apparent Km, HEPES buffer, 30 °C, 5 min, 5 μM enzyme", "description": "GC quantification of product, steady-state kinetics on SaSQS2", "remark": "listed apart in the source"}, "[6]": {"substrate": "CC(C)=CCC/C(C)=C/CC/C(C)=C/CO[P@@](=O)(O)OP(=O)(O)O", "assay": "GC quantification of product, steady-state kinetics", "format": "biochemical, Santalum album", "conditions": "apparent Km, HEPES buffer, 30 °C, 5 min, 5 μM enzyme", "description": "GC quantification of product, steady-state kinetics on SaBS", "remark": "listed apart in the source"}},
  "data": [
    {"molecule": "CC(C)=CCC/C(C)=C/COP(=O)(O)OP(=O)(O)O", "note": "[GPP]", "values": [
      {"measurement": "GC / GC-MS of (E,E)-farnesol after alkaline phosphatase", "setting": "[1]; with IPP", "result": "Incubation of recombinant SaFDS with equimolar concentrations of IPP and GPP"}
    ]},
    {"molecule": "CC(C)=CCC/C(C)=C/CC/C(C)=C/COP(=O)(O)OP(=O)(O)O", "note": "[(E,E)-FPP]", "values": [
      {"measurement": "GC / GC-MS product analysis", "setting": "[2]", "result": "a mutant of SaSS (Y539W, NCBI: JQ690659) was able to cyclize (E,E)-FPP"}
    ]},
    {"molecule": "C=C(C)CCOP(=O)(O)OP(=O)(O)O", "note": "[IPP]", "values": [
      {"measurement": "GC / GC-MS of (E,E)-farnesol after alkaline phosphatase", "setting": "[1]; with GPP or DMAPP", "result": "Incubation of recombinant SaFDS with equimolar concentrations of IPP and GPP"}
    ]},
    {"molecule": "B1", "values": [
      {"measurement": "Km", "setting": "[3]", "result": "0.59 ± 0.24", "unit": "µM"},
      {"measurement": "kcat", "setting": "[3]", "result": "0.00833 ± 0.0005", "unit": "s⁻¹"},
      {"measurement": "kcat/Km", "setting": "[3]", "result": 15000, "unit": "M⁻¹ s⁻¹"}
    ]},
    {"molecule": "B2", "values": [
      {"measurement": "Km", "setting": "[4]", "result": "11.12 ± 2.80", "unit": "µM"},
      {"measurement": "kcat", "setting": "[4]", "result": "0.00583 ± 0.0005", "unit": "s⁻¹"},
      {"measurement": "kcat/Km", "setting": "[4]", "result": 500, "unit": "M⁻¹ s⁻¹"}
    ]},
    {"molecule": "B3", "values": [
      {"measurement": "Km", "setting": "[5]", "result": "15.30 ± 3.83", "unit": "µM"},
      {"measurement": "kcat", "setting": "[5]", "result": "0.00233 ± 0.000167", "unit": "s⁻¹"},
      {"measurement": "kcat/Km", "setting": "[5]", "result": 150, "unit": "M⁻¹ s⁻¹"}
    ]},
    {"molecule": "B4", "values": [
      {"measurement": "Km", "setting": "[6]", "result": "12.59 ± 1.40", "unit": "µM"},
      {"measurement": "kcat", "setting": "[6]", "result": 0.000667, "unit": "s⁻¹"},
      {"measurement": "kcat/Km", "setting": "[6]", "result": 50, "unit": "M⁻¹ s⁻¹"}
    ]}
  ]
}
